Source: patent US20260144867A1 (TIGATX, published 2026)

Biological target: T1, EGFR expressed on A431, A1207 and D562 cell lines (human, UniProt P00533 25-1210)
T1 construct: whole, on cells; also called EGFR-expressing A431 cell line
Assay: competitive flow cytometry on A431 cells; blocked ligand: fluorescently labeled EGF (EGF-AL488)

IC50 (read off the curve): ~3 µg/mL
B1: anti-EGFR IgA3.0min DP3 (antibody, V domains shown)
VH: QVQLVQSGAEVKKPGASVKVSCKASGYTFTSHWMHWVRQAPGQGLEWIGEFNPSNGRTNYNEKFKSKATMTVDTSTNTAYMELSSLRSEDTAVYYCASRDYDYDGRYFDYWGQGTLVTVSS
VL: DIQMTQSPSSLSASVGDRVTITCSASSSVTYMYWYQQKPGKAPKLLIYDTSNLASGVPSRFSGSGSGTDYTFTISSLQPEDIATYYCQQWSSHIFTFGQGTKVEIKR
notes: also called anti-EGFR IgA3.0min DS3
